The values that follow come from paper PMC9288159, “Identification of a guanine-specific pocket in the protein N of SARS-CoV-2”.

The data set concerns the target SARS-CoV-2 N protein C-terminal domain (NCTD) (SARS-CoV-2, UniProt P0DTC9 256-364). Briefly: EMSA; […]; binding buffer not stated ([…]. As to conditions: protein: recombinant; tags: N-terminal His6-TEV site (pET28a); chain copies: 2; label: 5' IRDye-800CW. A general note: Mobility shift assays separate free from complexed probe on a gel.

Regarding CGGUUUCGCCG (ssRNA) [Oligo-G (SL5a apical region)], the Kd (as a rule, the constant that tells how readily two partners part at equilibrium) worked out at 32 ± 5 nM.
